# Laboratory results taken from paper PMC5606096, “High-level expression and characterization of a novel cutinase from Malbranchea cinnamomea suitable for butyl butyrate production” (Biotechnology for Biofuels, 2017).
# How the values were obtained:
# [1] = system: T1, CCCC(=O)Oc1ccc([N+](=O)[O-])cc1; assay: p-nitrophenol release, Michaelis-Menten fit (GraFit); format: biochemical, Malbranchea cinnamomea; conditions: 50 mM Tris-HCl pH 8.0, 45 °C, 5 min
# T1 construct: signal peptide (16 residues) removed, 215-residue precursor; pPIC9K secreted from Pichia pastoris GS115; purified on Q Sepharose; no tag mentioned
# [2] = system: T2, CCCCCC(=O)Oc1ccc([N+](=O)[O-])cc1; assay: as above; format: biochemical, Malbranchea cinnamomea; conditions: 50 mM Tris-HCl pH 8.0, 45 °C, 5 min
# T2 construct: signal peptide (16 residues) removed, 215-residue precursor; pPIC9K secreted from Pichia pastoris GS115; purified on Q Sepharose; no tag mentioned
# McCut (Malbranchea cinnamomea), sequence (chain, as listed by the source): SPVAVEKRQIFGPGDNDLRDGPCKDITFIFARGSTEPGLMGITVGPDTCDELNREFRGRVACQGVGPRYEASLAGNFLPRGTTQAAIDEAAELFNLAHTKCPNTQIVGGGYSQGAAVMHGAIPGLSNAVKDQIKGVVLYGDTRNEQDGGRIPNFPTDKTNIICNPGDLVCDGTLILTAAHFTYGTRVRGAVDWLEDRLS
substance,measurement,setting,value
McCut (Malbranchea cinnamomea),Km,[1],660 µM
same,kcat,[1],0.46 s⁻¹
same,Km,[2],270 µM
same,kcat,[2],0.46 s⁻¹
